# B1: PACT C77S, mammalian two-hybrid fusion (natural protein, human, UniProt O75569 1-313, looked up)
# chain: MSQSRHRAEAPPLEREDSGTFSLGKMITAKPGKTPIQVLHEYGMKTKNIPVYECERSDVQIHVPTFTFRVTVGDITSTGEGTSKKLAKHRAAEAAINILKANASICFAVPDPLMPDPSKQPKNQLNPIGSLQELAIHHGWRLPEYTLSQEGGPAHKREYTTICRLESFMETGKGASKKQAKRNAAEKFLAKFSNISPENHISLTNVVGHSLGCTWHSLRNSPGEKINLLKRSLLSIPNTDYIQLLSEIAKEQGFNITYLDIDELSANGQYQCLAELSTSPITVCHGSGISCGNAQSDAAHNALQYLKIIAERK
# Biological target: T1, PACT C213F, mammalian two-hybrid fusion (human, UniProt O75569 1-313, C213F)
# T1 sequence (looked up): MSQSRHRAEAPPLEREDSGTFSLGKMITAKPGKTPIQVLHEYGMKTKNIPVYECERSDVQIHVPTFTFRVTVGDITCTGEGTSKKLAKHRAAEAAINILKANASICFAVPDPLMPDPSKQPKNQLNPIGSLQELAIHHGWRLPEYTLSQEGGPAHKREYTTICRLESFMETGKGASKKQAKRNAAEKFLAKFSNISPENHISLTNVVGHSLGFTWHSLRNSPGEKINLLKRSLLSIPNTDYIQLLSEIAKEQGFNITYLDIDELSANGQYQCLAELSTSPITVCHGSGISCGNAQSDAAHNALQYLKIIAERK
# Assay: two-hybrid
binder,measurement,value
B1,fold over wt PACT-wt PACT interaction (luciferase reporter),~9 fold
